Reference: publication PMC6007975
Several values for one entry are separate records, joined by “and”; a condition that tells them apart may be missing. Identical values can stand only once.

Target: N-terminal fragment of mouse GSDMA3 (GSDMA3-NT) (mouse) (UniProt Q5Y4Y6)
Experiment: cryo-EM structure

N-terminal fragment of mouse GSDMA3 (GSDMA3-NT) (from UniProt Q5Y4Y6 1-262) (domain or fragment)
stoichiometry N: 26 and 28
